Non-standard residues stand in square brackets, D forms with d. Primed or numbered codes have the meaning given here. No end group written: not given here. Me3″ = trimethyl (trimethyl-lysine); Ahx = NCCCCCC(=O)O

Data on 33 molecules can be found in US20130116146A1 (University of California, published 2013).

First the molecules themselves.
T1: Polycomb protein chromodomain (a.a. 1-90), GST-tagged fusion protein (Drosophila melanogaster, UniProt P26017 1-90)
T1 construct: range 1-90; also called Polycomb-GST fusion protein; Polycomb chromodomain; not shown: GST tag
T1 sequence (looked up): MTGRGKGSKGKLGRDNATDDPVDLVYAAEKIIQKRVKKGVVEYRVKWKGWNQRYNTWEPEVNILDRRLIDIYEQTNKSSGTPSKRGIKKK

One experiment addresses T1, Polycomb protein chromodomain (a.a. …). As to the kind of experiment: peptide microarray, GST-Polycomb chromodomain overlaid on trimethylated peptides, p<0.001 in at least two of three spots. The text has this:
There are a total of 46 histone peptide sequences (9 a.a. long) with a single lysine-trimethylation site which are conserved between the human and fruit fly H2, H3 and H4 proteins (Table II). These were screened for Polycomb protein chromodomain binding by peptide microarray. Each peptide sequence was screened as triplets, and the fluorescence intensity was quantified with background subtraction individually for each spot from the microarray images by ImageJ⁹ and the whole data set was fit to a mixed Gaussian distribution model (FIG. 8, Table III).
The peptide microarray was rinsed with TBST buffer (25 mM Tris, 125 mM NaCl, 0.05% Tween-20, pH 8) followed by blocking with 5% non-fat milk in TBST (room temperature 1 hour or 4° C. overnight). The slide was then incubated at 4° C. with Polycomb-GST fusion protein at a final concentration of […] in 5% non-fat milk/TBST for 6 hours. After washing three times for 10 minutes each with TBST, the slide was incubated with an anti-GST mouse monoclonal IgG antibody (Thermo) at a final concentration of 1 μg/mL in 5% non-fat milk/TBST and shaken gently for 1 hour at room temperature. […] The slide was shaken for 1 hr at room temperature and washed three times with TBST.
With EGTKAVTK(Me3″)Y (also called H2B1A 117) [EGTKAVTKY, H2B_DROME lysine site 117, trimethylated], the binding result was “binds”.

Consider GGAKRHRK(Me3″)V (also called H4 20) [GGAKRHRKV, H4_DROME lysine site 20, trimethylated], for which the binding result is given as “binds”.

Regarding RIHRLLRK(Me3″)G (also called H2A1A 35) [RIHRLLRKG, H2A_DROME lysine site 35, trimethylated], the binding result was “binds”.

Regarding PRKQLATK(Me3″)A (also called H3.3 23) [PRKQLATKA, H3_DROME lysine site 23, trimethylated], the binding result is “binds”.

As for IQAVLLPK(Me3″)K (also called H2A1 117) [IQAVLLPKK, H2A_DROME lysine site 117, trimethylated], the binding result is on record as “binds”.

With GRIHRHLK(Me3″)S (also called H2AZ 37) [GRIHRHLKS, H2AV_DROME lysine site 37, trimethylated], the binding result was “binds”.

In the case of MDVVYALK(Me3″)R (also called H4 91) [MDVVYALKR, H4_DROME lysine site 91, trimethylated], the binding result is reported as “binds”.

For REIRRYQK(Me3″)S (also called H3.3 56) [REIRRYQKS, H3_DROME lysine site 56, trimethylated], the binding result is listed as “binds”.

As to ASKDLKVK(Me3″)R (also called H2AZ, H2AV 79) [ASKDLKVKR, H2AV_DROME lysine site 79, trimethylated], the binding result was “binds”.

Regarding DSGKAKAK(Me3″)A (also called H2AV 15) [DSGKAKAKA, H2AV_DROME lysine site 15, trimethylated], the binding result is given as “binds”.

Regarding RTKQTARK(Me3″)S (also called H3.3 9) [RTKQTARKS, H3_DROME lysine site 9, trimethylated], the binding result is reported as “binds”.

Consider LATKAARK(Me3″)S (also called H3K27me3; H3.3 27) [LATKAARKS, H3_DROME lysine site 27, trimethylated], for which the binding result is “binds”.

A further experiment deals with T2, GST-tagged Abl SH3 domain fusion protein (human, UniProt P00519 61-121, limits assumed).
T2 construct: domain: SH3 domain; also called GST-Abl SH3; Abl1 SH3 domain; not shown: GST tag
T2 sequence (P00519 61-121 limits assumed): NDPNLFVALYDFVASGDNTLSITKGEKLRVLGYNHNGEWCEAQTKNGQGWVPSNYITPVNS
Put plainly: peptide microarray, GST-Abl SH3 5 uM overlaid, peptide printed at 1 mg/ml, Cy3 fluorescence, triplicates. As for the experimental part: All peptides were synthesized by Sigma-Aldrich. The peptides were printed onto glass slides in triplicates by ArrayIt Corporation. A buffer blank and a Cy3 marker were also printed in triplicates. The peptide arrays were blocked with the blocking buffer (5% non-fat dry milk, TBS pH8.0, 0.05% Tween 20) for an hour at room temperature. Next, the peptide arrays were incubated overnight at 4° C. with purified GST-Abl SH3 in the blocking buffer at a final concentration of 5 μM. After washing three times for ten minutes with the TBST buffer (TBS pH8.0, 0.05% Tween 20), an anti-GST antibody (Santa Cruz Biotechnology) was added to a final concentration of 0.2 μg/ml in the blocking buffer for one hour at room temperature. The arrays were then washed three times for ten minutes with the TBST buffer. Finally, the arrays were incubated with the secondary antibody, Cy3-conjugated goat-anti-mouse IgG (H+L) (Jackson ImmunoResearch), for one hour at room temperature, followed by washing for three times for ten minutes with the TBST buffer. As a control, the peptide array was incubated with the anti-GST and the secondary antibodies alone.
To analyze the microarray data, the spots that were flagged as noisy were first removed. For the high (1 mg/ml) and low (0.5 mg/ml) printing concentrations, 724 and 767 (out of 800) spots remained for later analyses, respectively. Next, the statistical cut-off was determined for the significant fluorescence signal by modeling the background intensity distribution using a Gamma distribution (FIG. 4). The spots were binned based on the fluorescence intensity. To have a better curve fitting, the long tail of the histogram that represented strong binding peptides was removed and only the bins with intensity less than 900 and 1500 for the high and low concentrations, respectively, were kept. The model fitting and p-value calculation were conducted using R and P-value of 0.05 was used as the cutoff.
Take [Ahx]VAPPPPPPPP [WASL_HUMAN 371-380 peptide VAPPPPPPPP]: the “Average fluorescence intensity (high printing concentration)” value (“Average fluorescence intensity” for short) is 914.

Turning to PPSLPPPPPP (not fully specified (N-terminus)) [CBLB_HUMAN 818-827 peptide PPSLPPPPPP], the “Average fluorescence intensity” value is 35000.

As to APTVPPPLPP (not fully specified (N-terminus)) [3BP1_HUMAN 616-625 peptide APTVPPPLPP], the “Average fluorescence intensity” value is 45100.

On to [Ahx]PPAGGPPPPP (protein label as printed) [VASP2_HUMAN 165-174 peptide PPAGGPPPPP], for which the “Average fluorescence intensity” value turned out to be 26200.

Turning to [Ahx]SRGGPPPPPP [WASL_HUMAN 283-292 peptide SRGGPPPPPP], the “Average fluorescence intensity” value came out at 744.

Take [Ahx]GRGGPPPPPP [WASP_HUMAN 363-372 peptide GRGGPPPPPP]: the “Average fluorescence intensity” value is 1300.

For [Ahx]PVAPPPPPPP [WASL_HUMAN 370-379 peptide PVAPPPPPPP], the “Average fluorescence intensity” value came to 48800.

[Ahx]LPPPPLPPPP [YLPM1_HUMAN 81-90 peptide LPPPPLPPPP]: the “Average fluorescence intensity” value is 595.

As for [Ahx]APSGPPPPPP [WASL_HUMAN 354-363 peptide APSGPPPPPP], the “Average fluorescence intensity” value turned out to be 52300.

For the molecule PPPPPVPPPP (not fully specified (N-terminus)) [EVL_HUMAN 185-194 peptide PPPPPVPPPP], the “Average fluorescence intensity” value is 4680.

With [Ahx]PPPPPMPPPP [YLPM1_HUMAN 102-111 peptide PPPPPMPPPP], the “Average fluorescence intensity” value was found to be 22800.

As for LPPGPPPPVP (not fully specified (N-terminus)) [CPSF6_HUMAN 292-301 peptide LPPGPPPPVP], the “Average fluorescence intensity” value was found to be 1900.

With [Ahx]PPPPPPPGPP (protein label as printed) [WASP2_HUMAN 394-403 peptide PPPPPPPGPP], the “Average fluorescence intensity” value amounted to 2380.

As to CPLQPPPPPP (not fully specified (N-terminus)) [PDE4D_HUMAN peptide CPLQPPPPPP], the “Average fluorescence intensity” value was 840.

Turning to PNQVPPPPPP (not fully specified (N-terminus)) [ENAH_HUMAN 357-366 peptide PNQVPPPPPP], the “Average fluorescence intensity” value was 58000.

For [Ahx]GPPMPPPPPP [WASP_HUMAN 390-399 peptide GPPMPPPPPP], the “Average fluorescence intensity” value worked out at 23400.

With PPAYPPPPVP (not fully specified (N-terminus)) [3BP2_HUMAN 201-210 peptide PPAYPPPPVP], the “Average fluorescence intensity” value was 29700.

For PPAVPPPPVP (not fully specified (N-terminus)) [RIN1_HUMAN 259-268 peptide PPAVPPPPVP], the “Average fluorescence intensity” value is 42600.

For SPPLPPPPPP (not fully specified (N-terminus)) [RAPH1_HUMAN 677-686 peptide SPPLPPPPPP], the “Average fluorescence intensity” value amounted to 17500.

For the molecule [Ahx]GPVAPPPPPP [WASL_HUMAN 369-378 peptide GPVAPPPPPP], the “Average fluorescence intensity” value is 45000.

As for APPTPPPPPP (not fully specified (N-terminus)) [RAPH1_HUMAN 811-820 peptide APPTPPPPPP], the “Average fluorescence intensity” value was found to be 54400.
